Assay results reported in patent US20220324970A1 (Janssen / Centocor, published 2022).
Where two headings read alike, the source gives them in different places. Each block holds one binder with its values, some of them ahead of it.

Columns and labels:
[1] = molecular target: T1, human pIgR extracellular domain (ECD) (human, UniProt P01833 19-638); experiment: ECL (MSD), anti-VHH detection against anti-Fc detection
T1 construct: also called hpIgR ECD

[2] = molecular target: T2, human pIgR, full-length, on cells (human, UniProt P01833 19-764); experiment: flow cytometry on MDCK-hpIgR cells; summary table, repeats Table 1
T2 construct: whole, on cells; Used for the flow cytometry EC50 values (MDCK-hpIgR) and for the transcytosis read-outs; also called hpIgR; cell-surface hpIgR
T2 sequence (P01833 19-764): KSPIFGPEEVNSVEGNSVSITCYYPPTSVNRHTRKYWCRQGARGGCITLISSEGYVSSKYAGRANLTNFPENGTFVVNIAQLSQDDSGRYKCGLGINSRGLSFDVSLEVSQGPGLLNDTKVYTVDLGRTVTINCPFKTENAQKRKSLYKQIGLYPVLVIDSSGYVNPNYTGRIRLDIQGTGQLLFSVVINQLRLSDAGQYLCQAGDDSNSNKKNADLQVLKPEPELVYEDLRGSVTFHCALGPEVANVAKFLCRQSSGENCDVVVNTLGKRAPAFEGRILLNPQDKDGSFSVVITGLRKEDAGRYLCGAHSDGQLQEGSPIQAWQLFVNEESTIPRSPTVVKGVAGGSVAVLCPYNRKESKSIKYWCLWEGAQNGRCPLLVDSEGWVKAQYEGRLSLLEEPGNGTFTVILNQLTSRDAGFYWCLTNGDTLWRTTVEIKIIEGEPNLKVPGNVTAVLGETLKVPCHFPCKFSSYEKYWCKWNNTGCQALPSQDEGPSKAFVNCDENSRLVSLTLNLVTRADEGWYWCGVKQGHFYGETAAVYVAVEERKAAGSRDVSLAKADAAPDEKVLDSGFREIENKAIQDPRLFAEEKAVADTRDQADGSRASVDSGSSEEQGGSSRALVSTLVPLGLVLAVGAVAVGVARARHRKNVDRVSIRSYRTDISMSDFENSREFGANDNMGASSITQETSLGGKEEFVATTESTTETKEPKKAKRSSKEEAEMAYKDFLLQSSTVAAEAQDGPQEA
Description: (§1) Flow Cytometry was performed as follows. To test whether VHH-mono-Fc molecules recognize cell-surface hpIgR, Madin-Darby canine kidney (MDCK) cells engineered to express full-length hpIgR were used. Cells were cultured in Dulbecco's modified Eagle's medium containing 10% fetal calf serum at 37° C. with 5% CO₂. Cells were split into equal fractions (≈70,000 cells) and incubated with increasing concentrations of VHH-mono-Fc molecules for 30 min at 4 C. […] Cells were washed twice with cold staining buffer, resuspended in running buffer and analyzed with an iQue Screener (IntelliCyt Corporation). Binding was assessed by RL1 (A647) Geomeans from the live cell population and EC50 was calculated by fitting log VHH concentration versus MFI in Prism (Graphpad).

[3] = molecular target: T2, human pIgR, full-length, on cells; experiment: cell-based or functional assay
[4] = molecular target: T1, human pIgR extracellular domain (ECD); experiment: BLI (Octet), VHH-mono-Fc and hpIgR ectodomain
[5] = molecular target: T1, human pIgR extracellular domain (ECD); experiment: ECL (MSD), hpIgR-ECD coated, anti-VHH detection
Description: (§2) To check whether VHH recognizes a buried epitope on pIgR, EC₅₀ values were measured for VHH-mono-Fc molecules binding to hpIgR-ECD protein by electrochemiluminescence using two different detection antibodies, an anti-Fc antibody and an anti-VHH antibody. pIgR ECD (10 μg/ml in PBS) was coated on high-bind MSD plates for 2 hours at RT with 1000 rpm, incubated with blocking buffer for 1 hour at RT, incubated with VHH-mono-Fc molecules (increasing concentrations in PBS) for 2 hours at RT with 1000 rpm, washed 3× with PBT, incubated with ruthenylated secondary antibody (2 μg/ml in PBS) for 1 hour at RT with 1000 rpm, washed 3× with PBT and read plates in 40 ul reading buffer using the MSD imager. EC50 was calculated by fitting log VHH concentration versus log ECLU in Prism (Graphpad). The increase in EC₅₀ (>50-fold) due to anti-VHH detection was used as a measure to determine whether VHH recognized buried epitope on pIgR.

[6] = molecular target: T1, human pIgR extracellular domain (ECD); experiment: BLI; summary table, repeats Table 1
[7] = molecular target: T1, human pIgR extracellular domain (ECD); experiment: BLI; summary table, repeats Table 1; remark: listed apart in the source
[8] = molecular target: T1, human pIgR extracellular domain (ECD); experiment: ECL (MSD), hpIgR-ECD coated, anti-Fc detection
Description: as §2

[9] = molecular target: T3, human pIgR extracellular domain 5 (D5) (human, UniProt P01833 460-565); experiment: ECL (MSD) heat map, HIS-tagged construct captured via anti-HIS, anti-human-Fc detection
T3 construct: HIS-tagged construct made in HEK293 cells; also called hpIgR domain 5
Description: (§3) A meso-scale discovery (MSD) platform was used for conducting epitope mapping and epitope burial studies. To test the binding of VHH-mono-Fc molecules to purified pIgR protein constructs, Streptavidin MSD plates were coated with a biotinylated anti-HIS antibody (2 μg/ml in PBS) for 1 hour at RT with 1000 rpm, washed 3× with PBT (PBS+0.1% Tween-20), incubated with blocking buffer for 1 hour at RT, incubated with His-tagged pIgR proteins (10 μg/ml in PBS) for 2 hours at RT with 1000 rpm, washed 3× with PBT, incubated with VHH-mono-Fc molecules (100 μg/ml in PBS) for 2 hours at RT with 1000 rpm, washed 3× with PBT, incubated with ruthenylated-anti-human-Fc antibody (2 μg/ml in PBS) for 1 hour at RT with 1000 rpm, washed 3× with PBT and read plates in 40 ul reading buffer using the MSD imager. ECLU values were plotted as a heatmap.
(§4) Binding of VHH-mFc molecules were tested to immobilized pIgR constructs by the electrochemiluminescence method.

[10] = molecular target: T4, human pIgR extracellular domain 2 (D2) (human, UniProt P01833 128-242); experiment: as above
T4 construct: HIS-tagged construct made in HEK293 cells; also called hpIgR domain 2
Description: as §3, §4

[11] = molecular target: T5, human pIgR extracellular domain 1 (D1) (human, UniProt P01833 19-127); experiment: as above
T5 construct: HIS-tagged construct made in HEK293 cells; also called hpIgR domain-1
T5 sequence (P01833 other isoform, or with tags, fused parts or gaps limits assumed): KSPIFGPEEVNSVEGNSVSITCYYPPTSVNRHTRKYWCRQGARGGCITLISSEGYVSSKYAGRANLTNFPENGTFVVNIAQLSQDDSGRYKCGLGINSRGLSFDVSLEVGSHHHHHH
Description: as §3, §4

hpIgR_D3 = molecular target: T6, hpIgR_D3; experiment: as above
T6 construct: HIS-tagged construct from HEK293 cells; also called human pIgR extracellular domain 3 (D3); hD3
Description: as §3, §4
T6 HIS-tagged domain construct: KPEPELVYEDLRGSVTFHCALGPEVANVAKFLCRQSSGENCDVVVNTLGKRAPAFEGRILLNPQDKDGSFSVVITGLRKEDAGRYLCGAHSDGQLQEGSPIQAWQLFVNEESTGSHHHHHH

hpIgR_D2-D3 = molecular target: T7, hpIgR_D2-D3; experiment: as above
T7 construct: HIS-tagged construct from HEK293 cells; also called human pIgR extracellular domain 2-domain 3 (D2-D3); hD2-D3
Description: (§5) The Electrochemiluminescence assay was performed as follows. A meso-scale discovery (MSD) platform was used for conducting epitope mapping and epitope burial studies. To test the binding of VHH-mono-Fc molecules to purified pIgR protein constructs, Streptavidin MSD plates were coated with a biotinylated anti-HIS antibody (2 μg/ml in PBS) for 1 hour at RT with 1000 rpm, washed 3× with PBT (PBS+0.1% Tween-20), incubated with blocking buffer for 1 hour at RT, incubated with His-tagged pIgR proteins (10 μg/ml in PBS) for 2 hours at RT with 1000 rpm, washed 3× with PBT, incubated with VHH-mono-Fc molecules (100 μg/ml in PBS) for 2 hours at RT with 1000 rpm, washed 3× with PBT, incubated with ruthenylated-anti-human-Fc antibody (2 μg/ml in PBS) for 1 hour at RT with 1000 rpm, washed 3× with PBT and read plates in 40 ul reading buffer using the MSD imager. ECLU values were plotted as a heatmap.
T7 HIS-tagged domain construct: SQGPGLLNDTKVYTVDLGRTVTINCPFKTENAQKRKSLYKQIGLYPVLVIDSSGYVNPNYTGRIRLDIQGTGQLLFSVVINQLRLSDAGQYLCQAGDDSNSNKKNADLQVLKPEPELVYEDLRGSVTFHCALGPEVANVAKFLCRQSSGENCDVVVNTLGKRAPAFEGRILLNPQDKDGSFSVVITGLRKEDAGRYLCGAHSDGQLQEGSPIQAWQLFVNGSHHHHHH

[12] = molecular target: T8, human pIgR extracellular domain 1-domain 2 (D1-D2) (human, UniProt P01833 19-240); experiment: as above
T8 construct: HIS-tagged construct made in HEK293 cells
T8 sequence (P01833 other isoform, or with tags, fused parts or gaps limits assumed): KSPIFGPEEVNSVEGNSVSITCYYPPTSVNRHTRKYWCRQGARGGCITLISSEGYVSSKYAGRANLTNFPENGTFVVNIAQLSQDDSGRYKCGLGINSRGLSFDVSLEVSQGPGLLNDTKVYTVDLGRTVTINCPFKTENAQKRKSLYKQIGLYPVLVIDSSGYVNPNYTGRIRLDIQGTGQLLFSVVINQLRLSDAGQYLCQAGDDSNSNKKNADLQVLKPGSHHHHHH
Description: as §5

[13] = molecular target: T1, human pIgR extracellular domain (ECD); experiment: BLI (Octet RED384), 1:1 fit, 25 C, PBS
[14] = molecular target: T2, human pIgR, full-length, on cells; experiment: flow cytometry on MDCK-hpIgR cells; summary table, repeats Table 1; remark: listed apart in the source
Description: as §1

[15] = molecular target: T9, human pIgR extracellular domain 4-domain 5 (D4-D5) (human, UniProt P01833 350-565); experiment: BLI (Octet RED384), 1:1 fit, 25 C, PBS; antigen printed 'hD4 D5'
T9 construct: HIS-tagged construct made in HEK293 cells; also called hpIgR domains 4-5
T9 chain: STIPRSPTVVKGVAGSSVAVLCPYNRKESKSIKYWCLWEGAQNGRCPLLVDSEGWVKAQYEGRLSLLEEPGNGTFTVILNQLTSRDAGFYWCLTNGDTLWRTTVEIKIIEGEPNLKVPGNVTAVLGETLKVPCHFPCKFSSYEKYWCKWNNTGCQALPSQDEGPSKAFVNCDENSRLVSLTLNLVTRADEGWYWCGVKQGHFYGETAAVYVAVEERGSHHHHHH
Description: (§6) Bio-layer Interferometry was performed as follows. […] Data were collected with Octet Data Acquisition version 7.1.0.87 (ForteBio) and analyzed using Octet Data Analysis version 7.1 (ForteBio). To measure binding kinetics between VHH-mono-Fc molecules and HIS-tagged pIgR proteins, VHH-mono-Fc was immobilized on amine-reactive generation-2 (ARG2) biosensors according to manufacturer's instructions and increasing concentrations of pIgR proteins were exposed to sensor-immobilized VHH. In some cases, HIS-tagged pIgR proteins were immobilized on anti-HIS biosensors and exposed to increasing concentrations of VHH-mono-Fc molecules. Association and dissociation rates were measured by the shift in wavelength (nm). […] All reactions were performed at 25° C. in PBS.

[16] = molecular target: T2, human pIgR, full-length, on cells; experiment: cell-based or functional assay; remark: listed apart in the source
[17] = molecular target: T9, human pIgR extracellular domain …; experiment: BLI (Octet RED384), 1:1 fit, 25 C, PBS; column kdis; antigen printed 'hD4 D5'
Description: as §6

[18] = molecular target: T1, human pIgR extracellular domain (ECD); experiment: BLI (Octet RED384), 1:1 fit, 25 C, PBS; column kdis
[19] = molecular target: T2, human pIgR, full-length, on cells; experiment: flow cytometry on MDCK-hpIgR cells
Description: as §1

[20] = molecular target: T2, human pIgR, full-length, on cells; experiment: cell-based or functional assay; remark: listed apart in the source
[21] = molecular target: T3, human pIgR extracellular domain 5 (D5); experiment: ECL (MSD) heat map, HIS-tagged construct captured via anti-HIS, anti-human-Fc detection; remark: listed apart in the source
Description: as §5

[22] = molecular target: T9, human pIgR extracellular domain …; experiment: BLI (Octet RED384), 1:1 fit, 25 C, PBS
[23] = molecular target: T9, human pIgR extracellular domain …; experiment: BLI (Octet RED384), 1:1 fit, 25 C, PBS; column kdis
[24] = molecular target: T9, human pIgR extracellular domain …; experiment: ECL (MSD) heat map in ECLU: HIS-tagged construct captured via anti-HIS, VHH-mono-Fc 100 ug/ml, anti-human-Fc detection
Description: as §5

T1 sequence (P01833 other isoform, or with tags, fused parts or gaps): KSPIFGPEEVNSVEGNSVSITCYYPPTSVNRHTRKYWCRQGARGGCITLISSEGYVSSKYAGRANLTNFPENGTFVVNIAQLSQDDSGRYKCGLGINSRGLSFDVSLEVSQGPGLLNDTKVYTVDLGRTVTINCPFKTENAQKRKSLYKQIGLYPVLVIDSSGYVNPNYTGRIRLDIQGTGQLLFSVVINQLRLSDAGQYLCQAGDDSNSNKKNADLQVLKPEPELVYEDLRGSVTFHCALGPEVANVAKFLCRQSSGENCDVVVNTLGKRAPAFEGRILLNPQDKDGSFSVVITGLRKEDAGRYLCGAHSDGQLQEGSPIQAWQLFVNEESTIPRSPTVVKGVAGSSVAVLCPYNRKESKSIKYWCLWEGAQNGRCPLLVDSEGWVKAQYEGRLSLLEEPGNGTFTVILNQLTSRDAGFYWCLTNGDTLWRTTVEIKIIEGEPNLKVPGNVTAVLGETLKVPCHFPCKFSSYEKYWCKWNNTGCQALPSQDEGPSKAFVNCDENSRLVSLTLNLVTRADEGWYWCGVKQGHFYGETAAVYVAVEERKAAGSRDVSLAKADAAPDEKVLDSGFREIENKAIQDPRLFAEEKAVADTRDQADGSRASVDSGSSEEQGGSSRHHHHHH

Fold change in EC50 [1]: 592 fold | EC50 [2]: 0.0043 µM | For. Trans. (Fold Incr.) [3]: 8.9 fold | Rev. Trans (Fold Incr.) [3]: 2.1 fold | Kd [4]: 0.011 µM | EC50 [5]: 0.178 µM | Kd [6]: 0.011 µM | Kd [7]: 0.011 µM | EC50 [8]: 0.0003 µM | Kd [13]: 0.01 µM | kon [13]: 145000 M⁻¹ s⁻¹ | EC50 [14]: 0.0043 µM | Kd [15]: 0.0116 µM | kon [15]: 111000 M⁻¹ s⁻¹ | Transcytosis (Fold Incr.) [16]: 6.9 fold | koff [17]: 0.00128 s⁻¹ | koff [18]: 0.00145 s⁻¹ | EC50 [19]: 0.0043 µM
B1: VHH5-linker-mono-Fc protein (Fc fusion)
chain: QVQLVESGGGLVQAGGSLRLSCAASGRTFSSYAMGWFRQAPGKEREFVAAITWNGGTTYYADSVKGRFTISRDNAKNTVYLQMNSLKPEDTAVYYCAADPFNQGYWGQGTQVTVSSEPKTPKPQPQPQLQPQPNPTTESKSPKSPAPELLGGPSVFLFPPKPKDTLMISRTPEVTCVVVDVSHEDPEVKFNWYVDGVEVHNAKTKPREEQYNSTYRVVSVLTVLHQDWLNGKEYKCKVSNKALPAPIEKTISKAKGQPREPQVYTKPPSREEMTKNQVSLSCLVKGFYPSDIAVEWESNGQPENNYKTTVPVLDSDGSFRLASYLTVDKSRWQQGNVFSCSVMHEALHNHYTQKSLSLSPGK
notes: made in CHO cells; also called VHH5-mono-Fc; hpIgR_175
binding result [9]: no binding (tested: 100 ug/ml (single concentration)) | binding result [10]: no binding (tested: 100 ug/ml (single concentration)) | binding result [11]: no binding (tested: 100 ug/ml (single concentration)) | binding result (hpIgR_D3): no binding (tested: 100 ug/ml (single concentration)) | binding result (hpIgR_D2-D3): no binding (tested: 100 ug/ml (single concentration)) | binding result [12]: no binding (tested: 100 ug/ml (single concentration))

Fold change in EC50 [1]: 3.2 fold | EC50 [2]: 0.0015 µM | For. Trans. (Fold Incr.) [3]: 24.2 fold | Rev. Trans (Fold Incr.) [3]: 10.3 fold | Kd [4]: 0.019 µM | EC50 [5]: 0.0008 µM | Kd [6]: 0.019 µM | Kd [7]: 0.019 µM | EC50 [8]: 0.0003 µM | increase in their apical concentration relative to control VHH (MDCK-hpIgR monolayers) [20]: > 10 fold | Kd [13]: 0.0279 µM | kon [13]: 113000 M⁻¹ s⁻¹ | Kd [22]: 0.0152 µM | kon [22]: 184000 M⁻¹ s⁻¹ | EC50 [14]: 0.0015 µM | Transcytosis (Fold Incr.) [16]: 32 fold | koff [18]: 0.00314 s⁻¹ | koff [23]: 0.00281 s⁻¹ | EC50 [19]: 0.0015 µM
B2: VHH11-linker-mono-Fc protein (Fc fusion)
chain: EVQVVESGGGLVQAGGSLRLSCAASGRTFTTYRMGWFRQAPGKEREFVAAIRWSGGRTLYADSVKGRFTISRDNAKNTAYLQMNNLRPEDTAVYYCAADLAEYSGTYSSPADSPAGYDYWGQGTQVTVSSEPKTPKPQPQPQLQPQPNPTTESKSPKSPAPELLGGPSVFLFPPKPKDTLMISRTPEVTCVVVDVSHEDPEVKFNWYVDGVEVHNAKTKPREEQYNSTYRVVSVLTVLHQDWLNGKEYKCKVSNKALPAPIEKTISKAKGQPREPQVYTKPPSREEMTKNQVSLSCLVKGFYPSDIAVEWESNGQPENNYKTTVPVLDSDGSFRLASYLTVDKSRWQQGNVFSCSVMHEALHNHYTQKSLSLSPGK
notes: made in CHO cells; also called VHH11-mono-Fc; hpIgR_250
binding result [10]: no binding (tested: 100 ug/ml (single concentration)) | binding result [11]: no binding (tested: 100 ug/ml (single concentration)) | binding result (hpIgR_D3): no binding (tested: 100 ug/ml (single concentration)) | binding result [21]: no binding (tested: 100 ug/ml (single concentration)) | binding result (hpIgR_D2-D3): no binding (tested: 100 ug/ml (single concentration)) | binding result [12]: no binding (tested: 100 ug/ml (single concentration))

Fold change in EC50 [1]: 2.5 fold | EC50 [2]: 0.0364 µM | For. Trans. (Fold Incr.) [3]: 1.9 fold | Rev. Trans (Fold Incr.) [3]: 3.3 fold | Kd [4]: 0.521 µM | EC50 [5]: 0.0311 µM | Kd [6]: 0.521 µM | Kd [7]: 0.521 µM | EC50 [8]: 0.0124 µM | binding result [24]: binds | EC50 [14]: 0.0364 µM | Transcytosis (Fold Incr.) [16]: 1.3 fold | EC50 [19]: 0.0364 µM
B3: VHH7-linker-mono-Fc protein (Fc fusion)
chain: EVQVVESGGGLVQAGGSLRLACVASRSIGSINVMGWYRQAPGKQRDLVARITGGGSTHYAESVKGRFTISRDNAKNTVYLQMNSLEPEDTAVYYCASMVNPIITAWGTIGVREIPDYDYWGQGTQVTVSSEPKTPKPQPQPQLQPQPNPTTESKSPKSPAPELLGGPSVFLFPPKPKDTLMISRTPEVTCVVVDVSHEDPEVKFNWYVDGVEVHNAKTKPREEQYNSTYRVVSVLTVLHQDWLNGKEYKCKVSNKALPAPIEKTISKAKGQPREPQVYTKPPSREEMTKNQVSLSCLVKGFYPSDIAVEWESNGQPENNYKTTVPVLDSDGSFRLASYLTVDKSRWQQGNVFSCSVMHEALHNHYTQKSLSLSPGK
notes: made in CHO cells; also called VHH7-mono-Fc; hpIgR_198
binding result [9]: no binding (tested: 100 ug/ml (single concentration)) | binding result [10]: no binding (tested: 100 ug/ml (single concentration)) | binding result [11]: no binding (tested: 100 ug/ml (single concentration)) | binding result (hpIgR_D3): no binding (tested: 100 ug/ml (single concentration)) | binding result (hpIgR_D2-D3): no binding (tested: 100 ug/ml (single concentration))
